Data as given in patent US20190040368.

Tested on: recombinant human iduronate-2 sulfatase (rhIDS)
Sequence (chain, as listed by the source): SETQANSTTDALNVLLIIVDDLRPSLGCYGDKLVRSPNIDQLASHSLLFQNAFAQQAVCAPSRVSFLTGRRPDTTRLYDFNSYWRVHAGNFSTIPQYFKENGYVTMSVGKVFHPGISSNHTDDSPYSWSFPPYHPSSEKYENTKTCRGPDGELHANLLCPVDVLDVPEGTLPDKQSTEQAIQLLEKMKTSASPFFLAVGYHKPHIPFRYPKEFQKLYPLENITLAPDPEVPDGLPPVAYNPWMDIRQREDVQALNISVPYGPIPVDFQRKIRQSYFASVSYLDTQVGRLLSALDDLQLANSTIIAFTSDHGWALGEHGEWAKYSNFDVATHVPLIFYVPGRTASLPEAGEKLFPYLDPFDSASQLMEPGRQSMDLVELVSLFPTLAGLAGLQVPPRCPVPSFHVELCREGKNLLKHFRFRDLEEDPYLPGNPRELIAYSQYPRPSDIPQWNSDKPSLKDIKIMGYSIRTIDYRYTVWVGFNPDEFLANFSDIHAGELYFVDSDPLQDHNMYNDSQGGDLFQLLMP

Chain of Dendroctonus ponderosa Lip2-DpFGE-His6-HDEL fusion construct (chain, as listed by the source): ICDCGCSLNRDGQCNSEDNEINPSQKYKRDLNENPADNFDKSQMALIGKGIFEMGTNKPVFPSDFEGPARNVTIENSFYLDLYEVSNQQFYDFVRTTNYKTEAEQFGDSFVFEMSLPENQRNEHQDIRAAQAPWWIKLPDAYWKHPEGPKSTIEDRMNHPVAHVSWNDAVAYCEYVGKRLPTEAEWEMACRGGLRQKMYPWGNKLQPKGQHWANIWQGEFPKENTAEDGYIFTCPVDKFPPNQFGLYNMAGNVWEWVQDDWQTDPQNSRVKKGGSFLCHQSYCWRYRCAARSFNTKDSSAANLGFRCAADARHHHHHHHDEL

“Dendroctonus ponderosa Lip2-DpFGE-His6-HDEL fusion construct” was tested, and the % activity of rhIDS; co-expression with DpFGE was 5%.
